Here are results for nine substances from patent US20070224188A1.

The experiment has as its target biotin-labeled soluble FcRn. Put plainly: FcRn ELISA pH 6.0. For orientation: In an ELISA, binding on a coated surface is turned into a signal by an enzyme label.

Turning to anti-CD20 IgG1 V279R (antibody), the FcRn pH6.0 (% of wild type) is 130.

With anti-CD20 IgG1 L251F (antibody), the FcRn pH6.0 (% of wild type) was 64.

For anti-CD20 IgG1 D376T (antibody), the FcRn pH6.0 (% of wild type) was found to be 160.

anti-CD20 IgG1 L235G (antibody) came in with a FcRn pH6.0 (% of wild type) of 85.

Take anti-CD20 IgG1 P257S (antibody): the FcRn pH6.0 (% of wild type) is 184.

In the case of anti-CD20 IgG1 E283I (antibody), the FcRn pH6.0 (% of wild type) is 143.

anti-CD20 IgG1 T256I (antibody): the FcRn pH6.0 (% of wild type) stood at 72.

With anti-CD20 IgG1 L314W (antibody), the FcRn pH6.0 (% of wild type) was found to be 5.

As for anti-CD20 IgG1 T256N (antibody), the FcRn pH6.0 (% of wild type) turned out to be 229.
